Reference: patent publication US20230416329A1 (INSTITUTE OF MATERIA MEDICA CHINESE ACADEMY OF MEDICAL …, published 2023)
Bridge positions count the residues as written; N and C are the ends. Ends that are not written are not given here.

How the values were obtained:
bovine trypsin [1] = target: T1, bovine trypsin (bovine, UniProt P00760 24-246); assay: trypsin (50 nM) BApNA hydrolysis, OD405; peptide at 0.00098 µM
bovine trypsin [2] = target: T1, bovine trypsin; assay: trypsin (50 nM) BApNA hydrolysis, OD405; peptide at 0.0098 µM
bovine trypsin [3] = target: T1, bovine trypsin; assay: trypsin (50 nM) BApNA hydrolysis, OD405; peptide at 0.98 µM
Description: (§1) The substrates N-succinyl-Ala-Ala-Pro-Phe-p-nitroaniline (AAPFpNA), Nα—Benzoyl-L-arginine-4-nitroaniline hydrochloride (BApNA) and N-succinyl-[…] (AAApNA) are used in competitive binding reaction to determine the inhibitory activities against α-chymotrypsin, bovine trypsin, and porcine pancreatic elastase, respectively. Experiments for α-chymotrypsin and bovine trypsin inhibition were measured in 20 mM CaCl₂, 50 mM Tris-HCl buffer (pH 7.8), and that for porcine elastase inhibition was measured in 50 mM Tris-HCl buffer (pH 8.0). The concentration of the peptide was measured using optical density (OD) at 280 nm. The Michaelis constant (Kₘ) of the enzyme hydrolysis substrate is calculated from the initial rate of substrate hydrolysis at 405 nm. The absorbance value of the substrate was measured at 405 nm after complete hydrolysis. All data were processed using nonlinear regression.
(§2) (1) Added a total 190 μL of reaction buffer (20 mM CaCl₂ and 50 mM Tris-HCl, pH 7.8) along with different concentrations of anti-trypsin peptides (BTs) into the pre-cooled 96-well plate, followed by preheating at 37° C., and spined down at 500 rpm for 5 min. Next added 10 μL of 1 μM trypsin, incubated at 37° C., and then spined down at 500 rpm for 10 min. Finally, added 5 μL of 50 mM BApNA, and mixed by centrifugation at 500 rpm for 1 min. […] The experiment was performed in triplicate. The blank control only contained the reaction buffer and the substrate as the minimum absorption value (Min OD_{405 nm}). The negative control only contained the reaction buffer, the enzyme and the substrate as the maximum absorption value (Max OD_{405 nm}). […] (2) In the reaction system of 205 μL, the final concentrations of trypsin and BApNA were 50 nM and 1.22 mM, respectively. [0456] (3) Data statistics

bovine trypsin [4] = target: T1, bovine trypsin; assay: trypsin (50 nM) BApNA hydrolysis, OD405; peptide at 0.0488 µM
Description: as §1, §2

bovine trypsin [5] = target: T1, bovine trypsin; assay: trypsin (50 nM) BApNA hydrolysis, OD405; peptide at 0.98 µM; remark: listed apart in the source
bovine trypsin [6] = target: T1, bovine trypsin; assay: trypsin (50 nM) BApNA hydrolysis, OD405; peptide at 0.00098 µM; remark: listed apart in the source
bovine trypsin [7] = target: T1, bovine trypsin; assay: trypsin (50 nM) BApNA hydrolysis, OD405; peptide at 0.0098 µM; remark: listed apart in the source
Description: as §1, §2

bovine trypsin [8] = target: T1, bovine trypsin; assay: trypsin (50 nM) BApNA hydrolysis, OD405; peptide at 0.0488 µM; remark: listed apart in the source
bovine trypsin [9] = target: T1, bovine trypsin; assay: trypsin (50 nM) BApNA hydrolysis, OD405; peptide at 9.76 µM
Description: as §1, §2

bovine trypsin [10] = target: T1, bovine trypsin; assay: trypsin (50 nM) BApNA hydrolysis, OD405; peptide at 0.098 µM
Description: as §1, §2

bovine trypsin [11] = target: T1, bovine trypsin; assay: trypsin (50 nM) BApNA hydrolysis, OD405; peptide at 97.56 µM
Description: as §1, §2

bovine trypsin [12] = target: T1, bovine trypsin; assay: trypsin (50 nM) BApNA hydrolysis, OD405; peptide at 0.000098 µM
Description: as §1, §2

bovine trypsin [13] = target: T1, bovine trypsin; assay: trypsin (50 nM) BApNA hydrolysis, OD405; peptide at 9.76 µM; remark: listed apart in the source
bovine trypsin [14] = target: T1, bovine trypsin; assay: trypsin (50 nM) BApNA hydrolysis, OD405; peptide at 0.098 µM; remark: listed apart in the source
bovine trypsin [15] = target: T1, bovine trypsin; assay: trypsin (50 nM) BApNA hydrolysis, OD405; peptide at 0.0780 µM
Description: as §1
(1) Added a total 190 μL of reaction buffer (20 mM CaCl₂ and 50 mM Tris-HCl, pH 7.8) along with different concentrations of anti-trypsin peptides (BTs) into the pre-cooled 96-well plate, followed by preheating at 37° C., and spined down at 500 rpm for 5 min. Next added 10 μL of 1 μM trypsin, incubated at 37° C., and then spined down at 500 rpm for 10 min. Finally, added 5 μL of 50 mM BApNA, and mixed by centrifugation at 500 rpm for 1 min. […] The experiment was performed in triplicate. […]

[16] = target: porcine pancreatic elastase (porcine, UniProt P00772 27-266); assay: elastase inhibition, AAApNA substrate
Chain of porcine pancreatic elastase (P00772 27-266 limits assumed): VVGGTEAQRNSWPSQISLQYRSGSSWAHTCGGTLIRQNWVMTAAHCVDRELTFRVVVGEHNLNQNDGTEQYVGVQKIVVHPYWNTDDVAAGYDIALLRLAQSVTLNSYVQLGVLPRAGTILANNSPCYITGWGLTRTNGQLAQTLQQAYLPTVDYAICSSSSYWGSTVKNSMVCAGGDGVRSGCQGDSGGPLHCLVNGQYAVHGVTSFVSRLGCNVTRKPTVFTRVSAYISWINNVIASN
Description: as §1
(1) Added a total 190 μL of different concentrations of peptides (ECs) against elastase and reaction buffer (20 mM CaCl₂, 50 mM Tris-HCl buffer (pH 8.0)) into the pre-cold 96 well plate, followed by preheating at 37° C. for 5 min and centrifugated at 500 rpm for 1 min and allowed to stand for 4 minutes. […] Finally, added 2 μL of 100 mM AAApNA, and mixed by centrifugation at 500 rpm for 1 min. The plate was incubated at 37° C. for 60 min, and the absorbance value at 405 nm was measured. […]

T1 sequence (P00760 24-246): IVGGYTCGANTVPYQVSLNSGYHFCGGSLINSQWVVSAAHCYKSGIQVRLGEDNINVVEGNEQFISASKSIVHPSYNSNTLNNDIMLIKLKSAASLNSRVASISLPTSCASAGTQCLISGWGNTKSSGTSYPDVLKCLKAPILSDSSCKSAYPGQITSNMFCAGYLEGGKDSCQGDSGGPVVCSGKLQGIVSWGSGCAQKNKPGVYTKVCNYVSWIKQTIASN

Binder: CGRATKSIPPICF (disulfide 1-12 (inferred), synthetic) [BT9]
- Residual trypsin activity (%) (bovine trypsin [1]): 100%
- Residual trypsin activity (%) (bovine trypsin [2]): 94.3%
- Residual trypsin activity (%) (bovine trypsin [3]): -0.4%
- Residual trypsin activity (%) (bovine trypsin [4]): 68.1%
- Residual trypsin activity (%) (bovine trypsin [5]): -0.4%
- Residual trypsin activity (%) (bovine trypsin [6]): 100%
- Residual trypsin activity (%) (bovine trypsin [7]): 94.3%
- Residual trypsin activity (%) (bovine trypsin [8]): 68.1%

Binder: CGRYTKSIPPICF (disulfide 1-12 (inferred), synthetic) [BT53]
- Residual trypsin activity (%) (bovine trypsin [9]): 0.2%
- Residual trypsin activity (%) (bovine trypsin [3]): 0.5%
- Residual trypsin activity (%) (bovine trypsin [4]): 87.4%
- Residual trypsin activity (%) (bovine trypsin [10]): 63%
- Residual trypsin activity (%) (bovine trypsin [6]): 109%
- Residual trypsin activity (%) (bovine trypsin [7]): 106%
- Residual trypsin activity (%) (bovine trypsin [11]): 0%
- Residual trypsin activity (%) (bovine trypsin [12]): 104%

Binder: CPRATKSIPPICF (disulfide 1-12 (inferred), synthetic) [BT66]
- Residual trypsin activity (%) (bovine trypsin [13]): 0.1%
- Residual trypsin activity (%) (bovine trypsin [1]): 105%
- Residual trypsin activity (%) (bovine trypsin [2]): 106%
- Residual trypsin activity (%) (bovine trypsin [5]): 0.1%
- Residual trypsin activity (%) (bovine trypsin [14]): 4.8%
- Residual trypsin activity (%) (bovine trypsin [8]): 66.8%

Binder: CGRQTKSIPPICF (disulfide 1-12 (inferred), synthetic) [BT54]
- Residual trypsin activity (%) (bovine trypsin [9]): -0.1%
- Residual trypsin activity (%) (bovine trypsin [3]): 0.1%
- Residual trypsin activity (%) (bovine trypsin [4]): 65.8%
- Residual trypsin activity (%) (bovine trypsin [10]): 7.2%
- Residual trypsin activity (%) (bovine trypsin [6]): 99.2%
- Residual trypsin activity (%) (bovine trypsin [7]): 99.9%
- Residual trypsin activity (%) (bovine trypsin [15]): 24.3%
- Residual trypsin activity (%) (bovine trypsin [12]): 101%

Binder: CARATKSIPPICF (disulfide 1-12 (inferred), synthetic) [BT67]
- Residual trypsin activity (%) (bovine trypsin [13]): 0.1%
- Residual trypsin activity (%) (bovine trypsin [1]): 104%
- Residual trypsin activity (%) (bovine trypsin [2]): 102%
- Residual trypsin activity (%) (bovine trypsin [5]): 0.1%
- Residual trypsin activity (%) (bovine trypsin [14]): 1.5%
- Residual trypsin activity (%) (bovine trypsin [8]): 49.6%

Binder: CGRSTKSIPPICF (disulfide 1-12 (inferred), synthetic) [BT47]
- Residual trypsin activity (%) (bovine trypsin [9]): 0%
- Residual trypsin activity (%) (bovine trypsin [3]): 0.2%
- Residual trypsin activity (%) (bovine trypsin [4]): 57.4%
- Residual trypsin activity (%) (bovine trypsin [10]): 5.6%
- Residual trypsin activity (%) (bovine trypsin [6]): 105%
- Residual trypsin activity (%) (bovine trypsin [7]): 108%
- Residual trypsin activity (%) (bovine trypsin [11]): 0.1%
- Residual trypsin activity (%) (bovine trypsin [15]): 39%
- Residual trypsin activity (%) (bovine trypsin [12]): 103%

Binder: CGLATLSIPPICQ (disulfide 1-12 (inferred)) [EC7]
- binding result [16]: binds

Binder: LCTLSIPPQCY (disulfide 2-10 (inferred)) [EC2]
- binding result [16]: binds
